Laboratory results reported in patent publication US20200087373A1 (UNIVERSITY OF COPENHAGEN, published 2020).
Ends that are not written are not given here. * marks the point of attachment. Stearoyl = CCCCCCCCCCCCCCCCCC(=O)*

Key:
[1] = molecular target: human GIP receptor (human) (UniProt P48546); test: 125I-hGIP competition binding, COS-7 cells expressing hGIPR
human GIP receptor = molecular target: T1, human GIP receptor (human, UniProt P48546 22-466); test: cell-based or functional assay
T1 sequence (looked up): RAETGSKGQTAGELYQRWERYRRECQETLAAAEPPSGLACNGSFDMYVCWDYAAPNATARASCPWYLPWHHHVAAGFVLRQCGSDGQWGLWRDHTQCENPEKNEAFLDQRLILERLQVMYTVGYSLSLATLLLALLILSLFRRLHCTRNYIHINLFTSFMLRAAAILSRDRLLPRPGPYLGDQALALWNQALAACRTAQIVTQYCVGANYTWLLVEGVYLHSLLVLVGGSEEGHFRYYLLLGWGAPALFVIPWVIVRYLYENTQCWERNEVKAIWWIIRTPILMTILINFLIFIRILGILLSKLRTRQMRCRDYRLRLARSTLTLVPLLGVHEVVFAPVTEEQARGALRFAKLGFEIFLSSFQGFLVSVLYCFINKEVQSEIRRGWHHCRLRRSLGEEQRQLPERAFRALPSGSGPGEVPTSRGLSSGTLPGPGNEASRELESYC

With EGTFISDYSIAMDK(Stearoyl)IRQQDFVNWLLAQR-NH2 (not fully specified) [AT162 [hGIP(3-30)NH2[H18R; K30R]-C18/16]] the IC50 [1] was 85 nM, the “cAMP agonism, EC50 (log)” value (human GIP receptor) was -5.9 log M and the “cAMP agonism, Emax” value (human GIP receptor) was 44%. The “cAMP agonism, nM (EC50)” value (human GIP receptor) was 1370 nM.
